Laboratory results published in patent US20240101683A1 (published 2024).

B1: FWB1904 (antibody, V domains shown)
VH: QVQLVQSGAEVKKPGSSVKVSCKASGYIFTSYNVHWVRQAPGQGLEWIGSIYPDNGDTSYNQNFRGRATITADKSTSTAYMELSSLRSEDTAVYYCARGDFAYWGQGTLVTVSS
VL: DIQMTQSPSSLSASVGDRVTITCKASNGISNDIAWYQQKPGKAPKLLIYSASYRYSGVPSRFSGSGSGTDFTFTISSLQPEDIATYYCQQHSTTPYTFGQGTKLEIK
B2: FWB1914 (antibody, V domains shown)
VH: QVQLVQSGAEVKKPGSSVKVSCKASGYIFTSYNVHWVRQAPGQGLEWIGSIYPDNGDSSYNNNYKGRATITADKSTSTAYMELSSLRSEDTAVYYCARGDFAYWGQGTLVTVSS
VL: DIQMTQSPSSLSASVGDRVTITCKASNGVSNDIAWYQQKPGKAPKLLIYSASYRYSGVPSRFSGSGSGTDFTFTISSLQPEDIATYYCQQHSTTPYTFGQGTKLEIKR
B3: FWB1911 (antibody, V domains shown)
VH: QVQLVQSGAEVKKPGSSVKVSCKASGYIFTSYNVHWVRQAPGQGLEWIGSIYPDNGDSSYNQNYKGRATITADKSTSTAYMELSSLRSEDTAVYYCARGDFAYWGQGTLVTVSS
VL: DIQMTQSPSSLSASVGDRVTITCKASNGVSNDIAWYQQKPGKAPKLLIYSASYRYSGVPSRFSGSGSGTDFTFTISSLQPEDIATYYCQQHSTTPYSFGQGTKLEIK
B4: FWB1919 (antibody, V domains shown)
VH: QVQLVQSGAEVKKPGSSVKVSCKASGYIFTSYNVHWVRQAPGQGLEWIGSIYPDNGDSSYNQNYRGRATITADKSTSTAYMELSSLRSEDTAVYYCARGDFAYWGQGTLVTVSS
VL: DIQMTQSPSSLSASVGDRVTITCRGSNGISNDIAWYQQKPGKAPKLLIYSASYRYSGVPSRFSGSGSGTDFTFTISSLQPEDIATYYCQQHSTTPYTFGQGTKLEIK
B5: FWB1922 (antibody, V domains shown)
VH: QVQLVQSGAEVKKPGSSVKVSCKASGYIFTSYNVHWVRQAPGQGLEWIGSIYPDNGDSTYNQNYRGRATITADKSTSTAYMELSSLRSEDTAVYYCARGDFAYWGQGTLVTVSS
VL: DIQMTQSPSSLSASVGDRVTITCKGSNGISNDIAWYQQKPGKAPKLLIYSASYRYSGVPSRFSGSGSGTDFTFTISSLQPEDIATYYCQQHSTTPYTFGQGTKLEIK
B6: FWB1915 (antibody, V domains shown)
VH: QVQLVQSGAEVKKPGSSVKVSCKASGYIFTSYNVHWVRQAPGQGLEWIGSIYPDNGDSSYDEDYKGRATITADKSTSTAYMELSSLRSEDTAVYYCARGDFAYWGQGTLVTVSS
VL: DIQMTQSPSSLSASVGDRVTITCKASNGVSNDIAWYQQKPGKAPKLLIYSASYRYSGVPSRFSGSGSGTDFTFTISSLQPEDIATYYCQQHSTTPYTFGQGTKLEIK
B7: FWB1905 (antibody, V domains shown)
VH: QVQLVQSGAEVKKPGSSVKVSCKASGYIFTSYNVHWVRQAPGQGLEWIGSIYPDNGDSSYNQNYKGRATITADKSTSTAYMELSSLRSEDTAVYYCARGDFAYWGQGTLVTVSS
VL: DIQMTQSPSSLSASVGDRVTITCKASNGVSNDIAWYQQKPGKAPKLLIYSASYRYSGVPSRFSGSGSGTDFTFTISSLQPEDIATYYCQQHSTTPYTFGQGTKLEIK
B8: FWB1906 (antibody, V domains shown)
VH: QVQLVQSGAEVKKPGSSVKVSCKASGYIFTSYNVHWVRQAPGQGLEWIGSIYPDNGDSSYNQNYRGRATITADKSTSTAYMELSSLRSEDTAVYYCARGDFAYWGQGTLVTVSS
VL: DIQMTQSPSSLSASVGDRVTITCKASNGISNDIAWYQQKPGKAPKLLIYSASYRYSGVPSRFSGSGSGTDFTFTISSLQPEDIATYYCQQHSTTPYTFGQGTKLEIK
B9: FWB1923 (antibody, V domains shown)
VH: QVQLVQSGAEVKKPGSSVKVSCKASGYIFTSYNVHWVRQAPGQGLEWIGSIYPDNGDSTYDEDFKGRATITADKSTSTAYMELSSLRSEDTAVYYCARGDFAYWGQGTLVTVSS
VL: DIQMTQSPSSLSASVGDRVTITCKVSQGVSNDAVWYQQKPGKAPKLLIYSASYRYSGVPSRFSGSGSGTDFTFTISSLQPEDIATYYCQQHSTTPYTFGQGTKLEIK
B10: FWB1912 (antibody, V domains shown)
VH: QVQLVQSGAEVKKPGSSVKVSCKASGYIFTSYNVHWVRQAPGQGLEWIGSIYPDNGDSSYNQNYKGRATITADKSTSTAYMELSSLRSEDTAVYYCARGDYAYWGQGTLVTVSS
VL: DIQMTQSPSSLSASVGDRVTITCKASNGVSNDIAWYQQKPGKAPKLLIYSASYRYSGVPSRFSGSGSGTDFTFTISSLQPEDIATYYCQQHSTTPYTFGQGTKLEIK
B11: FWB1925 (antibody, V domains shown)
VH: QVQLVQSGAEVKKPGSSVKVSCKASGYIFTSYNVHWVRQAPGQGLEWIGSIYPDNGDSTYDEDYRGRATITADKSTSTAYMELSSLRSEDTAVYYCARGDFAYWGQGTLVTVSS
VL: DIQMTQSPSSLSASVGDRVTITCKGSNGISNDIAWYQQKPGKAPKLLIYSASYRYSGVPSRFSGSGSGTDFTFTISSLQPEDIATYYCQQHSTTPYTFGQGTKLEIK
B12: FWB1910 (antibody, V domains shown)
VH: QVQLVQSGAEVKKPGSSVKVSCKASGYIFTTYNVHWVRQAPGQGLEWIGSIYPDNGDTSYDEDFKGRATITADKSTSTAYMELSSLRSEDTAVYYCARGDFAYWGQGTLVTVSS
VL: DIQMTQSPSSLSASVGDRVTITCKVSQGVSNDAVWYQQKPGKAPKLLIYSASYRYTGVPSRFSGSGSGTDFTFTISSLQPEDIATYYCQQHSTTPYTFGQGTKLEIK
B13: FWB1908 (antibody, V domains shown)
VH: QVQLVQSGAEVKKPGSSVKVSCKASGYIFTTYNVHWVRQAPGQGLEWIGSIYPDNGDSTYNQNFKGRATITADKSTSTAYMELSSLRSEDTAVYYCARGDFAYWGQGTLVTVSS
VL: DIQMTQSPSSLSASVGDRVTITCKGSQGVSNDVAWYQQKPGKAPKLLIYSASYRYTGVPSRFSGSGSGTDFTFTISSLQPEDIATYYCQQHSTTPYTFGQGTKLEIK
B14: FWB1920 (antibody, V domains shown)
VH: QVQLVQSGAEVKKPGSSVKVSCKASGYIFTSYNIHWVRQAPGQGLEWIGSIYPDNGDSSYNQNYRGRATITADKSTSTAYMELSSLRSEDTAVYYCARGDFAYWGQGTLVTVSS
VL: DIQMTQSPSSLSASVGDRVTITCKGSNGVSNDIAWYQQKPGKAPKLLIYSASYRYSGVPSRFSGSGSGTDFTFTISSLQPEDIATYYCQQHSTTPYTFGQGTKLEIK
B15: FWB1921 (antibody, V domains shown)
VH: QVQLVQSGAEVKKPGSSVKVSCKASGYIFTSYNVHWVRQAPGQGLEWIGSIYPDNGDSTYNQNYRGRATITADKSTSTAYMELSSLRSEDTAVYYCARGDFAYWGQGTLVTVSS
VL: DIQMTQSPSSLSASVGDRVTITCKGSNGVSNDIAWYQQKPGKAPKLLIYSASYRYSGVPSRFSGSGSGTDFTFTISSLQPEDIATYYCQQHSTTPYTFGQGTKLEIK
B16: FWB1916 (antibody, V domains shown)
VH: QVQLVQSGAEVKKPGSSVKVSCKASGYIFTSYNVHWVRQAPGQGLEWIGSIYPDNGDSSYNQNYKGRATITADKSTSTAYMELSSLRSEDTAVYYCARGDFAYWGQGTLVTVSS
VL: DIQMTQSPSSLSASVGDRVTITCKASNGISNDIAWYQQKPGKAPKLLIYSASYRYSGVPSRFSGSGSGTDFTFTISSLQPEDIATYYCQQHSTTPYTFGQGTKLEIK
B17: FWB1913 (antibody, V domains shown)
VH: QVQLVQSGAEVKKPGSSVKVSCKASGYIFTSYNVHWVRQAPGQGLEWIGSIYPDNGDSSYNQNYKGRATITADKSTSTAYMELSSLRSEDTAVYYCARGDYAYWGQGTLVTVSS
VL: DIQMTQSPSSLSASVGDRVTITCKASNGVSNDIAWYQQKPGKAPKLLIYSASYRYSGVPSRFSGSGSGTDFTFTISSLQPEDIATYYCQQHSTTPYSFGQGTKLEIK
B18: FWB1924 (antibody, V domains shown)
VH: QVQLVQSGAEVKKPGSSVKVSCKASGYIFTSYNVHWVRQAPGQGLEWIGSLYPDNGDTSYDEDYKGRATITADKSTSTAYMELSSLRSEDTAVYYCARGDFAYWGQGTLVTVSS
VL: DIQMTQSPSSLSASVGDRVTITCKVSQGVSNDAVWYQQKPGKAPKLLIYSASYRYSGVPSRFSGSGSGTDFTFTISSLQPEDIATYYCQQHSTTPYTFGQGTKLEIK
B19: FWB1918 (antibody, V domains shown)
VH: QVQLVQSGAEVKKPGSSVKVSCKASGYIFTSYNVHWVRQAPGQGLEWIGSIYPDNGDSSYNQNFRGRATITADKSTSTAYMELSSLRSEDTAVYYCARGDFAYWGQGTLVTVSS
VL: DIQMTQSPSSLSASVGDRVTITCKGSNGISNDIAWYQQKPGKAPKLLIYSASYRYSGVPSRFSGSGSGTDFTFTISSLQPEDIATYYCQQHSTTPYTFGQGTKLEIK
B20: FWB1907 (antibody, V domains shown)
VH: QVQLVQSGAEVKKPGSSVKVSCKASGYIFTSYNVNWVRQAPGQGLEWIGSIYPDNGDSSYNNNYKGRATITADKSTSTAYMELSSLRSEDTAVYYCARGDFAYWGQGTLVTVSS
VL: DIQMTQSPSSLSASVGDRVTITCRASNGISNDIAWYQQKPGKAPKLLIYSASYRYSGVPSRFSGSGSGTDFTFTISSLQPEDIATYYCQQHSTTPYTFGQGTKLEIK

How the values were obtained:
Human FGFR2βIIIb = target: T1, Human FGFR2βIIIb (human, UniProt P21802-21 22-263, limits assumed); test: ELISA, coated antigen, anti-Fab HRP
T1 construct: Construct used in the ELISA (tag, Fc, limits) is not described
T1 sequence (P21802 other isoform, or with tags, fused parts or gaps limits assumed): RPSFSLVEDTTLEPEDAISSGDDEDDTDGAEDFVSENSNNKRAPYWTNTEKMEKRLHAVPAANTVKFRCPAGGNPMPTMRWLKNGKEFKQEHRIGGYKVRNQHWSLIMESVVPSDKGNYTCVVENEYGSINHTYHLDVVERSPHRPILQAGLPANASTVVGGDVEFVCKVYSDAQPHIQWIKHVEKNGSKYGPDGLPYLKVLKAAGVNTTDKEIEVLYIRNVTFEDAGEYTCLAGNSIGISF

Murine FGFR2IIIb = target: T2, Murine FGFR2IIIb (murine, UniProt P21803-2 22-263, limits assumed); test: ELISA, coated antigen, anti-Fab HRP
T2 construct: Construct used in the ELISA is not described
T2 sequence (P21803 other isoform, or with tags, fused parts or gaps limits assumed): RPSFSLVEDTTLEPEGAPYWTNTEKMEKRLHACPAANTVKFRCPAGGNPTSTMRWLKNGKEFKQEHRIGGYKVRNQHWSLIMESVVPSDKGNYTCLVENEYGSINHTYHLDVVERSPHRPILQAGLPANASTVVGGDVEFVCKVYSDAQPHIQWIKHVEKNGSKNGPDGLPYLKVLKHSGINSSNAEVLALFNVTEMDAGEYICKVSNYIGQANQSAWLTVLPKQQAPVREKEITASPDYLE

[1] = target: T3, rhFGFR2IIIb-Fc (recombinant human FGFR2IIIb-Fc) (human, UniProt P21802-3 22-378, limits assumed); test: ELISA, coated rhFGFR2IIIb-Fc, anti-Fab HRP
T3 construct: Coated on the ELISA plate at 2 ug/mL; not shown: Fc part
T3 sequence (P21802 other isoform, or with tags, fused parts or gaps limits assumed): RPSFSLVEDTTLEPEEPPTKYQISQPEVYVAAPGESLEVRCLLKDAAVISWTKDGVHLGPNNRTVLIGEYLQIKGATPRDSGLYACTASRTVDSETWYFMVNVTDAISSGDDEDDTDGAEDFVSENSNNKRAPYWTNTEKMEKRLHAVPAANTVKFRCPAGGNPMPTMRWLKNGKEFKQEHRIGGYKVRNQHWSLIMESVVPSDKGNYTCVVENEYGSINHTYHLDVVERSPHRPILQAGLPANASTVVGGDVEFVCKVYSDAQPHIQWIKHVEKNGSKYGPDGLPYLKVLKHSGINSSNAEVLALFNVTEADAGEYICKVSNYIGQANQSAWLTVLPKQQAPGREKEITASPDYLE

Binder	EC50 (Human FGFR2βIIIb) [nM]	EC50 (Murine FGFR2IIIb) [nM]	EC50 [1] [nM]
B1	0.163	0.308	0.351
B2	0.203	0.25	1.01
B3	0.246	0.338	0.697
B4	0.149	0.314	0.879
B5	0.215	0.139	0.656
B6	0.185	0.273	0.877
B7	0.173	0.262	0.298
B8	0.167	0.289	0.324
B9	–	–	1.68
B10	0.207	0.293	0.724
B11	0.173	0.0908	0.643
B12	0.21	0.295	0.279
B13	0.126	0.225	0.281
B14	0.153	0.274	1.21
B15	0.176	0.261	0.621
B16	0.143	0.29	0.582
B17	0.196	0.296	0.903
B18	–	–	1.89
B19	0.135	0.27	0.626
B20	0.262	5.9	1.06
